Measurements taken from patent EP4703384A1 (Chia Tai Tianqing Pharmaceutical Group Co., Ltd., dated 2026).

Tests used:
human GPRC5D protein [1] = molecular target: T1, human GPRC5D protein (human, UniProt Q9NZD1 1-345); assay: FACS on NCI-H929 cells
T1 construct: also called hGPRC5D; CHO-K1-hGPRC5D^hi

human GPRC5D protein [2] = molecular target: T1, human GPRC5D protein; assay: cell-based or functional assay
T cell surface CD3 [3] = molecular target: T2, T cell surface CD3 (human, UniProt P07766 23-207; P04234 22-171; P09693 23-182); assay: FACS on human CD3+ T cells
T2 construct: CD3 is a complex of several chains; also called CD3^+ T cells
T2 sequence (P07766 23-207 limits assumed, chain 1 of 3): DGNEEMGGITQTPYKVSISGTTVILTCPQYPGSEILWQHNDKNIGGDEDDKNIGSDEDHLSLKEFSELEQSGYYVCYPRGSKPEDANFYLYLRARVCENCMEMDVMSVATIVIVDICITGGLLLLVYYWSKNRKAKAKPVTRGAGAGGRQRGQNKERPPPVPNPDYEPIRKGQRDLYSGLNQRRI
T2 sequence (P04234 22-171 limits assumed, chain 2 of 3): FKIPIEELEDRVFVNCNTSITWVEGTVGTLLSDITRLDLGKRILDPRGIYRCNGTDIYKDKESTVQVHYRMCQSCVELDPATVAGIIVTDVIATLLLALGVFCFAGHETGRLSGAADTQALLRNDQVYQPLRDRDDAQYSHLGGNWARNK
T2 sequence (P09693 23-182 limits assumed, chain 3 of 3): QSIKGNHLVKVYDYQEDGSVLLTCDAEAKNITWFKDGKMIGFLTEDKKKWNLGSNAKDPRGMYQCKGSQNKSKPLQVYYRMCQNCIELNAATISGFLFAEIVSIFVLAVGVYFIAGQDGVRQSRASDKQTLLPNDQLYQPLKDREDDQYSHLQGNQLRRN

human GPRC5D protein [4] = molecular target: T1, human GPRC5D protein; assay: FACS on RPMI-8226 cells
human GPRC5D protein [5] = molecular target: T1, human GPRC5D protein; assay: FACS on MM.1S cells
T cell surface CD3 [6] = molecular target: T2, T cell surface CD3; assay: cell-based or functional assay

T1 sequence (Q9NZD1 whole entry): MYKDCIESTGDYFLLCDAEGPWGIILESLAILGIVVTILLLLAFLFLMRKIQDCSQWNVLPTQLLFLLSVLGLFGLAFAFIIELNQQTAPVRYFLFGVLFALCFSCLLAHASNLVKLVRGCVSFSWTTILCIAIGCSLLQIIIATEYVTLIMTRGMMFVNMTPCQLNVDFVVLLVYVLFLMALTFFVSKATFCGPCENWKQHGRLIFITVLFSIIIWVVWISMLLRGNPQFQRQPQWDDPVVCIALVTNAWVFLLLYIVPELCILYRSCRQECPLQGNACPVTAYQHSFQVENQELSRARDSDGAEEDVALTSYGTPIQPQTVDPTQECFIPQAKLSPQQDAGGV

Row | EC50 (human GPRC5D protein [1]) [nM] | Lysis EC50(nM), MM.1S target cells with human PBMC (human GPRC5D protein [2]) [nM] | Lysis EC50(nM), NCI-H929 target cells with human PBMC (human GPRC5D protein [2]) [nM] | Lysis EC50(nM), RPMI-8226 target cells with human PBMC (human GPRC5D protein [2]) [nM] | EC50 (T cell surface CD3 [3]) [nM] | Top(MFI) (T cell surface CD3 [3]) | EC50 (human GPRC5D protein [4]) [nM] | EC50 (human GPRC5D protein [5]) [nM] | CD25/CD4 EC50(nM), activation of T cells in the presence of MM.1S (T cell surface CD3 [6]) [nM] | CD25/CD8 EC50(nM), activation of T cells in the presence of MM.1S (T cell surface CD3 [6]) [nM] | CD69/CD4 EC50(nM), activation of T cells in the presence of MM.1S (T cell surface CD3 [6]) [nM] | CD69/CD8 EC50(nM), activation of T cells in the presence of MM.1S (T cell surface CD3 [6]) [nM] | Binder
1 | 3.04 | 0.00534 | 0.00592 | 0.0163 | 48.9 | 54700 | 15.9 | 3.75 | 0.00999 | 0.00879 | 0.00738 | 0.00458 | GC35 (bispecific antibody, human IgG1, kappa, L234A L235A, also called anti-GPRC5D/anti-CD3 bispecific antibody GC35) heavy: EVQLVQSGAEVVKPGASVKMSCKASGYTFTNYVMHWVKQAPGQGLEWMGYFNPYNDGTNYNEKFKGRVTLTSDTSANTAYMELSSLRSEDTAVYYCARGGVRRYFDVWGQGTTVTVSSASTKGPSVFPLAPSSKSTSGGTAALGCLVKDYFPEPVTVSWNSGALTSGVHTFPAVLQSSGLYSLSSVVTVPSSSLGTQTYICNVNHKPSNTKVDKKVEPKSCDKTHTCPPCPAPEAAGGPSVFLFPPKPKDTLMISRTPEVTCVVVDVSHEDPEVKFNWYVDGVEVHNAKTKPREEQYNSTYRVVSVLTVLHQDWLNGKEYKCKVSNKALAAPIEKTISKAKGQPREPQVCTLPPSREEMTKNQVSLSCAVKGFYPSDIAVEWESNGQPENNYKTTPPVLDSDGSFFLVSKLTVDKSRWQQGNVFSCSVMHEALHNHYTQKSLSLSPGK light: DIQMTQSPSSLSASVGDRVTITCRASQDIGSNLNWLQLGPGGAIKRLIYATFSLDSGVPSRFSGSRSGSDYTLTISSLQPEDFVDYYCQQYANFPPTFGGGTKVEIKRTVAAPSVFIFPPSDEQLKSGTASVVCLLNNFYPREAKVQWKVDNALQSGNSQESVTEQDSKDSTYSLSSTLTLSKADYEKHKVYACEVTHQGLSSPVTKSFNRGEC ELVVTQEPSLTTSPGGTVTLTCRSSTGAVTTSNYANWVQQKPGQAPRGLIGGTNKRAPGTPARFSGSLLGGKAALTITGVQPEDEAEYYCALWYSNLWVFGGGTKLTVLGGGGSGGGGSGGGGSEVQLVESGGGLVQPGGSLRLSCAASGFTFNTYAMNWVRQAPGKGLEWVARIRSKYNNYATYYADSVKDRFTISRDDSKNTAYLQMNNLKTEDTAMYYCVRHGNFGNSYVSWFAYWGQGTLVTVSSGEPKSSDKTHTCPPCPAPEAAGGPSVFLFPPKPKDTLMISRTPEVTCVVVDVSHEDPEVKFNWYVDGVEVHNAKTKPREEQYNSTYRVVSVLTVLHQDWLNGKEYKCKVSNKALAAPIEKTISKAKGQPREPQVYTLPPCREEMTKNQVSLWCLVKGFYPSDIAVEWESNGQPENNYKTTPPVLDSDGSFFLYSKLTVDKSRWQQGNVFSCSVMHEALHNRYTQKSLSLSPGK
2 | 16.7 | 0.0335 | 0.0146 | 0.136 | 37.9 | 38000 | – | 3.71 | 0.0596 | 0.0448 | 0.0438 | 0.0226 | GC39 (bispecific antibody, human IgG1, kappa, L234A L235A, also called anti-GPRC5D/anti-CD3 bispecific antibody GC39) heavy: EVQLVESGGGLVQPGGSRRVSCAASGFTFSSFGMHWVRQAPGKGLEWVAYISRGSSTIYYADTVKGRFTISRDNAKNSLYLQMNSLRAEDTAVYYCARSGYGSSSYYFDYWGQGTTVTVSSASTKGPSVFPLAPSSKSTSGGTAALGCLVKDYFPEPVTVSWNSGALTSGVHTFPAVLQSSGLYSLSSVVTVPSSSLGTQTYICNVNHKPSNTKVDKKVEPKSCDKTHTCPPCPAPEAAGGPSVFLFPPKPKDTLMISRTPEVTCVVVDVSHEDPEVKFNWYVDGVEVHNAKTKPREEQYNSTYRVVSVLTVLHQDWLNGKEYKCKVSNKALAAPIEKTISKAKGQPREPQVCTLPPSREEMTKNQVSLSCAVKGFYPSDIAVEWESNGQPENNYKTTPPVLDSDGSFFLVSKLTVDKSRWQQGNVFSCSVMHEALHNHYTQKSLSLSPGK light: EIVLTQSPATLSASPGERATMSCRASSSIRSSYLHWYQQKPGQSPRLWIYSTSNLASGVPARFSGSGSGTDYTLTISSLEPEDAAVYYCQQFSGYPLTFGGGTKVEIKRTVAAPSVFIFPPSDEQLKSGTASVVCLLNNFYPREAKVQWKVDNALQSGNSQESVTEQDSKDSTYSLSSTLTLSKADYEKHKVYACEVTHQGLSSPVTKSFNRGEC ELVVTQEPSLTTSPGGTVTLTCRSSTGAVTTSNYANWVQQKPGQAPRGLIGGTNKRAPGTPARFSGSLLGGKAALTITGVQPEDEAEYYCALWYSNLWVFGGGTKLTVLGGGGSGGGGSGGGGSEVQLVESGGGLVQPGGSLRLSCAASGFTFNTYAMNWVRQAPGKGLEWVARIRSKYNNYATYYADSVKDRFTISRDDSKNTAYLQMNNLKTEDTAMYYCVRHGNFGNSYVSWFAYWGQGTLVTVSSGEPKSSDKTHTCPPCPAPEAAGGPSVFLFPPKPKDTLMISRTPEVTCVVVDVSHEDPEVKFNWYVDGVEVHNAKTKPREEQYNSTYRVVSVLTVLHQDWLNGKEYKCKVSNKALAAPIEKTISKAKGQPREPQVYTLPPCREEMTKNQVSLWCLVKGFYPSDIAVEWESNGQPENNYKTTPPVLDSDGSFFLYSKLTVDKSRWQQGNVFSCSVMHEALHNRYTQKSLSLSPGK
